Target: T1, wild type (WT) VirD2 protein, Agrobacterium tumefaciens str. C58 (UniProt P18592)
T1 sequence: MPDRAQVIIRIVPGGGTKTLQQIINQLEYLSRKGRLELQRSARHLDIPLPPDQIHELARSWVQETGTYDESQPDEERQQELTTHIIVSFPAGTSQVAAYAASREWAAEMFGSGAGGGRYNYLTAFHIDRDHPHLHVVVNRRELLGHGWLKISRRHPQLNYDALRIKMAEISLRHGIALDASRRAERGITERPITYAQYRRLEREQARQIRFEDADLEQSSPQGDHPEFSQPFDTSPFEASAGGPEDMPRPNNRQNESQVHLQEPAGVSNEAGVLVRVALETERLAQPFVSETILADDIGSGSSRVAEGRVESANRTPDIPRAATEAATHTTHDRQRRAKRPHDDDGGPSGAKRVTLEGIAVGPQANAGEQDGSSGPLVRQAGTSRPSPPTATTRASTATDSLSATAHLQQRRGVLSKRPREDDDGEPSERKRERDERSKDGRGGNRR

plant caspase (putative subtilisin-like (serine) protease, PSLP) from tobacco
Western (immunoblotting) analysis of degradation by plant caspase: degradation of wild type (WT) VirD2 protein by plant caspase (lane 2)

Reference: patent US20100323397
